From patent US20150080315A1
Blank lines part the entries; values can stand above or below the molecule they belong to.

Legend:
[1] = target: HDAC complex / nucleosome remodeling and deacetylase (NuRD) complex in SNU-398 nuclear extracts; test: cell-based or functional assay
[2] = target: HDAC complex / nucleosome remodeling and deacetylase (NuRD) complex in SNU-398 nuclear extracts; test: fluorescence polarization competition; unlabeled peptide displaces FITC-labeled wild type peptide from complexes in SNU-398 nuclear extracts

engraftment of human AML cells treated with wild type peptide in NSG mice [1]: 0.5%
Molecule: endogenous SALL4 (SNU-398 cells) (from UniProt Q9UJQ4 1-1053)

IC50 [2]: 5 µM
B1: wild type 12-AA SALL4 peptide (…), unlabeled (peptide)
peptide: MSRRKQAKPQHI
